For test [1], the target named is T1, monomeric cynomolgus monkey CSF1R ectodomain protein (cynomolgus monkey, UniProt P07333 20-517 (human entry)).
T1 construct: also called monomeric cyno CSF1R; Cyno CSF1R
T1 chain: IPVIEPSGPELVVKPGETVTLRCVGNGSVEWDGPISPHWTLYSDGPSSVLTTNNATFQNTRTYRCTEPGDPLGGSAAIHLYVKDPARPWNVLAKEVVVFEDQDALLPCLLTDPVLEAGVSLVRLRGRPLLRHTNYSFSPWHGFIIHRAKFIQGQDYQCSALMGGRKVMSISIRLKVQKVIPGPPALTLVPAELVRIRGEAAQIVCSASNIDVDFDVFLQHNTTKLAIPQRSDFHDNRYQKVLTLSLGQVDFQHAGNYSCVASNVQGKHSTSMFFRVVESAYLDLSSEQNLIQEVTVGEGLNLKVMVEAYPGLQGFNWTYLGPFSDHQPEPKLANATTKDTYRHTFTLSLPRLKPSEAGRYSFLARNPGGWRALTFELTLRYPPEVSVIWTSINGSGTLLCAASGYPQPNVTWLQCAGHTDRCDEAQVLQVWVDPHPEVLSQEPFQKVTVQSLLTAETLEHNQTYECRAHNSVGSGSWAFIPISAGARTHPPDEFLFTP
The test is described as follows: SPR Biacore, IgG captured, monomeric CSF1R analyte. The procedure:
(§1) Affinity (KD) of purified IgGs was determined via SPR with antigen in-solution on a Biacore 3000 (GE). A mouse anti-human antibody (CH1 specific) was immobilized on a CM5 Sensor Chip to a level of 2000 RU in acetate buffer at pH 4.5 using amine coupling following the Wizard instructions for two channels. One channel was used for background signal correction. The standard running buffer HBS-EP pH 7.4 was used. Regeneration was performed with a single injection of 10 μl of 10 mM Glycine at pH 1.5 at 20 μl/minute. IgG samples were injected for 2 minutes at 50 nM at 30 μl/min followed by and off-rate of 60 seconds. The monomeric ectodomain protein (human CSF1R or cynomolgus monkey CSF1R) was injected in two fold serial dilutions from 100 nM down to 3.1 nM, for 2 minutes at 30 μl/min followed by an off-rate of 300 seconds. The obtained sensorgrams were analysed using the Biacore 3000 evaluation (BIAevaluation) software. The KD was calculated by simultaneous fitting of the association and dissociation phases to a 1:1 Langmuir binding model.
On the technique in general: SPR reads the build-up and loss of mass on a sensor chip optically.

In test [2] the target is T2, monomeric human CSF1R ectodomain protein (human, UniProt P07333 20-517).
T2 construct: also called biotinylated monomeric human CSF1R
As to the kind of experiment: SPR Biacore, IgG captured, monomeric CSF1R analyte. The method, then: as §1

Test [3] has as its target T1, monomeric cynomolgus monkey CSF1R …. As to the kind of experiment: SPR Biacore, IgG captured, monomeric CSF1R analyte. The procedure:
as §1
(§2) Biacore analyses of binding affinity were performed for all IgGs to solution-phase, monomeric human and cyno CSF1R proteins (Table 6). […] Affinity differentials of less than 3-fold between human and cyno target orthologs are highly beneficial in pre-clinical drug development analyses as they allow more accurate design and interpretation of e.g. monkey safety, PK and PD modelling experiments.

Test [4] deals with T2, monomeric human CSF1R ectodomain protein. As to the kind of experiment: SPR Biacore, IgG captured, monomeric CSF1R analyte. The procedure: as §1, §2
The source holds these as a separate data set.

For test [5] the target is unchanged. As to the kind of experiment: AlphaScreen competition with mu0301 IgG4(S228P) for biotinylated monomeric human CSF1R. The procedure: The AlphaScreen assay (Perkin Elmer) was performed in a 25 μl final volume in 384-well white microtiter plates (Greiner). The reaction buffer contained 1×PBS pH 7.3 (Oxoid, Cat. nr. BR0014G) and 0.05% (v/v) Tween® 20 (Sigma, Cat. nr. P9416). Purified IgG samples were titrated in three fold serial dilutions starting at 500 nM final concentration and incubated with biotinylated human CSF1R for 20 minutes at room temperature. […] The emission of light was measured in the EnVision multilabel plate reader (Perkin Elmer) and analysed using the EnVision manager software. Values were reported as Counts Per Second (CPS) and corrected for crosstalk. The EC50 values were calculated using the […] in GraphPad Prism software (GraphPad Software, La Jolla, Calif.).
A general note: Bead proximity is the source of the signal in Alpha formats.

For test [6], the target named is T3, human CSF1R human Fc tagged recombinant protein (human, UniProt P07333 20-517).
T3 construct: also called human CSF1R-Fc
The test is described as follows: direct titration ELISA on coated human CSF1R-Fc, IgG4(S228P) format, OD 450 nm. The method, then:
(§3) Binding and cross-reactivity of the lead panel to the recombinant proteins was initially assessed by binding ELISA. The human CSF1R human Fc tagged recombinant protein and the cynomolgus monkey CSF1R human Fc tagged recombinant protein were coated to the surface of MaxiSorp™ flat-bottom 96 well plate at 1 μg/ml. The purified IgG samples were titrated in two fold serial dilutions starting from 500 nM to 0.008 nM and allowed to bind to the coated antigens. The Fabs were detected using mouse anti-c-myc antibody followed by donkey anti-mouse IgG conjugated to horseradish peroxidase. The IgGs were detected using the mouse anti-human IgG conjugated to horseradish peroxidase. Binding signals were visualized with 3,3′,5,5′-Tetramethylbenzidine Substrate Solution (TMB) and the absorbance measured at 450 nm.

For test [7], the target named is T3, human CSF1R human Fc tagged recombinant …. Described as above. The procedure:
as §3
The source holds these as a separate data set.

The target of test [8] is T4, cynomolgus monkey CSF1R human Fc tagged recombinant protein (cynomolgus monkey, UniProt P07333 20-517 (human entry), limits assumed).
T4 construct: also called cyno CSF1R-Fc
T4 chain: T1 chain
The test is described as follows: direct titration ELISA on coated cyno CSF1R-Fc, IgG4(S228P) format, OD 450 nm. The procedure:
as §3

The next test addresses T5, human insulin (human, UniProt P01308 25-54; P01308 90-110, limits assumed).
T5 construct: Coated antigen of the polyreactivity ('PK-risk indicator') ELISA
The test is described as follows: ELISA on human insulin (development risk, polyreactivity), binding score. Background: ELISA stands for enzyme-linked immunosorbent assay.

Test [9] concerns the target T4, cynomolgus monkey CSF1R human Fc tagged …. As to the kind of experiment: direct titration ELISA on coated cyno CSF1R-Fc, IgG4(S228P) format, OD 450 nm. The method, then:
as §3

These results are taken from patent US20210301026A1 (ULTRAHUMAN TWELVE, published 2021).

Numbering of substitutions follows the chain as printed. Names may count otherwise. Read-outs that look alike come from different tables or passages of the source.

T5 sequence (P01308 25-54 limits assumed, chain 1 of 2): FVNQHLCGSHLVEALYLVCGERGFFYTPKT
T5 sequence (P01308 90-110 limits assumed, chain 2 of 2): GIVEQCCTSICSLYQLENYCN

B1: MH5 (antibody, human IgG4, V domains shown)
VH: QVQLVQSGAEVKKPGSSVKVSCKASGYTFSSYYMIWVRQAPGQGLEWMGDINPYNGGANYAQKFQGRVTITADESTSTAYMELSSLRSEDTAVYYCAREGPYFSNLYVMDYWGQGTLVTVSS
VL: EIVLTQSPATLSLSPGERATLSCRASQSVSYEGENYLNWYQQKPGQAPRLLIYAASNRATGIPARFSGSGSGTDFTLTISSPEPEDFAVYYCQLSNEDLLTFGGGTKVEIK
notes: Designer (maximally humanized) clone; tested as human IgG4(S228P)/Ckappa IgG; also called mAb-2
Regarding B1, the Kd in [1] turned out to be 0.62 nM; in [2], 0.22 nM; in [3] it was 0.62 nM; in [4], 0.22 nM. Besides, the koff turned out to be 0.00031 s⁻¹ in [1], 0.00036 s⁻¹ in test [2], 0.00031 s⁻¹ in [3] and 0.00036 s⁻¹ in [4]. The kon in [1] amounted to 500000 M⁻¹ s⁻¹; in [2], 1.7e+06 M⁻¹ s⁻¹; in [3] it was 500000 M⁻¹ s⁻¹; in test [4] it was 1.7e+06 M⁻¹ s⁻¹. Moreover, the IC50 in [5] is 2.18 nM.

B2: MH6 (antibody, V domains shown)
VH: B1 VH
VL: B1 VL with N38A, P82L, E97Q
notes: Designer clone, human IgG4(S228P)/Ckappa IgG
In test [3], B2 showed a Kd of 1.3 nM, a koff of 0.00064 s⁻¹ and a kon of 510000 M⁻¹ s⁻¹. In test [4], this molecule returned a Kd of 0.88 nM, a koff of 0.0012 s⁻¹ and a kon of 1.3e+06 M⁻¹ s⁻¹. In test [5], the IC50 came out at 7.74 nM and the “fold lower epitope competition than hu0301” value is over 2 fold.

B3: MH4 (antibody, V domains shown)
VH: B1 VH
VL: B1 VL with E32Q, N38A, A54D, P82L, E97Q
notes: as for B2
In [3], B3 displayed a Kd of 2.9 nM, a koff of 0.0014 s⁻¹ and a kon of 470000 M⁻¹ s⁻¹. Besides, in test [4], the Kd stood at 1.9 nM, the koff was found to be 0.0024 s⁻¹ and the kon is 1.3e+06 M⁻¹ s⁻¹. Also, in test [5], the IC50 was found to be 18.9 nM and the “fold lower epitope competition than hu0301” value was over 2 fold.

B4: MH9 (antibody, V domains shown)
VH: B1 VH with M34I, G57T
VL: B1 VL with N38A, P82L, E97Q
notes: as for B2
For B4, the “EC50 (read off the curve)” value in test [6] is about 10 nM.

B5: MH22 (antibody, human IgG4, V domains shown)
VH: B1 VH with Y32H
VL: B1 VL with L50S, L51A
notes: Deimmunized MH5 derivative, human IgG4(S228P)/Ckappa IgG
As to B5, the binding result in test [7] is “binds”; in test [8] it was “binds”; with human insulin it was “no binding”.

B6: 29E11 (antibody, human IgG4, V domains shown)
VH: B1 VH with S30T, G57T, N59T
VL: B1 VL with E32D, N38A, P82L
notes: Library-derived clone, tested as human IgG4(S228P)/Ckappa IgG; framework residue limits counted on the grafts
For the molecule B6, the binding result in test [6] and in [9] was “binds” each time.

B7: 30C11 (antibody, human IgG4, V domains shown)
VH: B1 VH with S30T, Y32N, G57T, N59T, G100D
VL: B1 VL with E34D, R58L, A59E, P82L, E97Q
notes: as for B6
As for B7, the binding result in [6] and in test [9] was “binds” throughout.

B8: MH38 (antibody, human IgG4, V domains shown)
VH: B1 VH with Y32H, Q114R
VL: B1 VL with L50S, L51A
notes: as for B5
For B8, the binding result in [7] and in [8] was “binds” throughout.

B9: 29B07 (antibody, human IgG4, V domains shown)
VH: B1 VH with S30T, M34I, N59T, G100P
VL: B1 VL with S30E, E34D, P82L, E97Q
notes: as for B6
In [3], B9 showed a Kd of 0.79 nM, a koff of 0.00025 s⁻¹ and a kon of 310000 M⁻¹ s⁻¹. In test [4], this molecule yielded a Kd of 0.34 nM, a koff of 0.00051 s⁻¹ and a kon of 1.5e+06 M⁻¹ s⁻¹. The same molecule gave an IC50 in test [5] of 3.86 nM.

B10: 30D02 (antibody, human IgG4, V domains shown)
VH: B1 VH with A58T, N59T
VL: B1 VL with S30E, E32Q, P82L, E97Q
notes: as for B6
In test [3], B10 came in with a Kd of 1.7 nM, a koff of 0.00032 s⁻¹ and a kon of 190000 M⁻¹ s⁻¹. In addition, in [4], the Kd came to 0.48 nM, the koff is 0.00049 s⁻¹ and the kon is 1e+06 M⁻¹ s⁻¹. Also, the IC50 in [5] was 3.92 nM.

B11: MH14 (antibody, human IgG4, V domains shown)
VH: B1 VH with Y32A
VL: B1 VL with L50S, L51A
notes: as for B5
B11: the binding result in test [7] was “binds”; in test [8], “binds”; in the test with human insulin, “no binding”.

B12: MH31 (antibody, human IgG4, V domains shown)
VH: B1 VH with Y32A, Q114R
VL: B1 VL with L50A, L51A
notes: as for B5
For the molecule B12, the binding result in [7] is “binds”; in test [8] it was “binds”; in the test with human insulin, “no binding”.

B13: MH23 (antibody, human IgG4, V domains shown)
VH: B1 VH with Y32H
VL: B1 VL with L50A, L51A
notes: as for B5
Turning to B13, the binding result in [7] is given as “binds”; in test [8], “binds”; with human insulin it was “no binding”.

By Kd is commonly meant the constant that tells how readily two partners part at equilibrium. Usually koff stands for a measure of how fast the partners let go of each other. Broadly, the kon is the second-order rate constant of association. What is called IC50 is the concentration that inhibits the measured activity by half. Broadly, the EC50 (read off the curve) is the concentration that produces a half-maximal response.
